± gives the standard error. For part of these data: This sample holds only a part of the variants without activity.
B1: glmS ribozyme (parent)
chain: AUAAAAGCGCCAGAACUACAGAAAUGUAGUUGACGAGGAGGAGGUUUAUCGAAUUUUCGGCGGAUGCCUCCAAA

Tests used:
Settings in all cases: with glucosamine-6-phosphate
glucosamine-6-phosphate [1] = variants of: B1; experiment: kcat; higher = faster cleavage; RNA array
Procedure, shortened: (§1)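 Over ~14 h at 37 °C, tiles were imaged as glucosamine-6-phosphate (40 μM to 10 mM) in HEPES/KCl/Mg(OAc)2 buffer flowed across sequenced MiSeq chips. The chips carried barcoded ribozyme variants transcribed in situ by E. coli RNA polymerase and tracked with a hybridised Cy3 probe. After normalisation to baseline and to non-cleaving reference variants, one- or two-exponential decay fits of per-tile medians gave kobs. kcat and KM followed from weighted Michaelis–Menten fits across concentrations.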

glucosamine-6-phosphate [2] = variants of: B1; experiment: self-cleavage kobs at 40 uM GlcN6P; higher = faster cleavage; RNA array
Procedure, shortened: as §1

glucosamine-6-phosphate [3] = variants of: B1; experiment: self-cleavage kobs at 160 uM GlcN6P; higher = faster cleavage; RNA array
Procedure, shortened: as §1

glucosamine-6-phosphate [4] = variants of: B1; experiment: self-cleavage kobs at 640 uM GlcN6P; higher = faster cleavage; RNA array
Procedure, shortened: as §1

glucosamine-6-phosphate [5] = variants of: B1; experiment: self-cleavage kobs at 2500 uM GlcN6P; higher = faster cleavage; RNA array
Procedure, shortened: as §1

glucosamine-6-phosphate [6] = variants of: B1; experiment: self-cleavage kobs at 10000 uM GlcN6P; higher = faster cleavage; RNA array
Procedure, shortened: as §1

glucosamine-6-phosphate [7] = variants of: B1; experiment: KM; higher = weaker cofactor use; RNA array
Procedure, shortened: as §1

Row | Variant | kcat (glucosamine-6-phosphate [1]) | self-cleavage kobs at 40 uM GlcN6P (glucosamine-6-phosphate [2]) | self-cleavage kobs at 160 uM GlcN6P (glucosamine-6-phosphate [3]) | self-cleavage kobs at 640 uM GlcN6P (glucosamine-6-phosphate [4]) | self-cleavage kobs at 2500 uM GlcN6P (glucosamine-6-phosphate [5]) | self-cleavage kobs at 10000 uM GlcN6P (glucosamine-6-phosphate [6]) | KM (glucosamine-6-phosphate [7])
1 | AUAAAAGCGCGAGAACUACAGAAAUGUAGUUGACGAGGAGGAGGUUUAUCGAAUUUUCGGCGGAUGCGUCCAAA [C11G C68G] | 2.12e-05 ± 7.1e-06 s⁻¹ | – | – | – | – | – | –
2 | AUAAAAGCGCCAGAACUACAGAAAUGUAGUUGACGAGGAGGAAGGUUAUCGAAUUUUCGGCGGAUGCCUCCAAA [G43A U45G] | 0.0116 ± 0.0056 s⁻¹ | 0.000563 ± 0.0001 s⁻¹ | 0.000816 ± 0.00022 s⁻¹ | 0.00306 ± 0.00054 s⁻¹ | 0.00969 ± 0.0023 s⁻¹ | 0.00965 ± 0.0026 s⁻¹ | –
3 | AUAAAAGCGCCAGAACUACAGAAAUGUAGCUGACGCGGAGGAGGUUUAUCGAAUUUUCGGCGGAUGCCUCCAAA [U30C A36C] | < 1e-05 s⁻¹ | < 1e-05 s⁻¹ | – | – | < 1e-05 s⁻¹ | < 1e-05 s⁻¹ | –
4 | AUAAAAGCGCCAGUACUACAGAAAUGUAGUGGACGAGGAGGAGGUUUAUCGAAUUUUCGGCGGAUGCCUCCAAA [A14U U31G] | 0.00512 ± 0.0017 s⁻¹ | 0.000142 ± 2.1e-05 s⁻¹ | 0.000241 ± 5.5e-05 s⁻¹ | 0.00115 ± 0.0003 s⁻¹ | 0.00273 ± 0.0005 s⁻¹ | 0.00424 ± 0.0007 s⁻¹ | 2230 ± 1100 µM
5 | AUAAAAGCGCCAGAACUACAGAAAUGUAGUUGACGAGGAGGAGGUUUAUCGAAUUUUCGGGGGAUGCUUCCAAA [C61G C68U] | < 1e-05 s⁻¹ | – | – | – | – | – | –
6 | AUAAAAGCGCCAGAACUACAGAAAUGUAGAUGACGAGGAGGAGGUUUAUCGAAUUUUCGGCGGAUGCUUCCAAA [U30A C68U] | 0.000818 ± 0.00016 s⁻¹ | 3.27e-05 ± 1.2e-05 s⁻¹ | 9.37e-05 ± 2e-05 s⁻¹ | 0.000204 ± 2.7e-05 s⁻¹ | 0.000417 ± 6.6e-05 s⁻¹ | 0.000776 ± 9.4e-05 s⁻¹ | 1730 ± 610 µM
7 | AUAAAAGCGCCAGAACUACAGAAAUGUAGUUGACGAGGAGGAGGUUUAUCGAGUUUUCGGCGGAUGCCUACAAA [A53G C70A] | 0.000194 ± 2e-05 s⁻¹ | 7.6e-05 ± 7e-06 s⁻¹ | 0.000132 ± 1.6e-05 s⁻¹ | 0.000188 ± 2.3e-05 s⁻¹ | 0.000183 ± 2.6e-05 s⁻¹ | – | 63.2 ± 16 µM
8 | AUAAAAGCGCCAGAACUACAGAAAUGUAUUUGACGAGGAGGAGGAUUAUCGAAUUUUCGGCGGAUGCCUCCAAA [G29U U45A] | 0.0141 ± 0.0034 s⁻¹ | 0.000225 ± 4.9e-05 s⁻¹ | 0.000796 ± 0.00018 s⁻¹ | 0.00237 ± 0.00044 s⁻¹ | 0.00765 ± 0.0017 s⁻¹ | 0.0103 ± 0.005 s⁻¹ | 2740 ± 820 µM
9 | AUAAAAGCGCCAGAACUACAGAAAUGUAGUUGACGAGUAGGAGGUUUAUCGAAUUUUCCGCGGAUGCCGCCAAA [G38U G59C U69G] | 4.16e-05 ± 1.3e-05 s⁻¹ | – | – | – | – | – | –
10 | AUAAAAGCGUUGGAACUACAGAAAUGUAGUUGACGAGGAGGAGGUUUAUCGAAUUUUCGGCGGAUGCCUCCAAA [C10U C11U A12G] | 2.44e-05 ± 6.4e-06 s⁻¹ | – | < 1e-05 s⁻¹ | – | – | – | –

Reference: the supplement of paper PMC7125110
